{
  "source": "paper PMC12120360",
  "about": "“Lysine acetylation modulates s‐OPA1 GTPase activity and oligomerization in mitochondrial membrane remodeling” (Protein Science : A Publication of the Protein Society, 2025)",
  "molecular_target": "the molecule itself",
  "assay": "mass photometry; protein in solution at 75 nM final; 20 mM HEPES-NaOH pH 7.5, 130 mM NaCl, 10 mM KCl, 2 mM MgCl2, 2 mM DTT, 2% glycerol; Refeyn mass photometer; mass measured three times for each protein",
  "data": [
    {"protein": "short form of human OPA1 (residues 195–960) wild-type (domain or fragment, UniProt O60313-1 195-960, looked up, acetyl-lysine at K342 only (endogenous, acquired during expression; found by mass spectrometry), Optic Atrophy 1 (OPA1), human, short form (s-OPA1), residues 195-960; domain model of isoform 1; Gene bought from Genscript in the pGS-21a vector; also called s-OPA1 WT; s-OPA1; source: E. coli BL21 (DE3), purified (glutathione resin, 3C protease cleavage, size exclusion chromatography)) ATDRGSESDKHFRKVSDKEKIDQLQEELLHTQLKYQRILERLEKENKELRKLVLQKDDKGIHHRKLKKSLIDMYSEVLDVLSDYDASYNTQDHLPRVVVVGDQSAGKTSVLEMIAQARIFPRGSGEMMTRSPVKVTLSEGPHHVALFKDSSREFDLTKEEDLAALRHEIELRMRKNVKEGCTVSPETISLNVKGPGLQRMVLVDLPGVINTVTSGMAPDTKETIFSISKAYMQNPNAIILCIQDGSVDAERSIVTDLVSQMDPHGRRTIFVLTKVDLAEKNVASPSRIQQIIEGKLFPMKALGYFAVVTGKGNSSESIEAIREYEEEFFQNSKLLKTSMLKAHQVTTRNLSLAVSDCFWKMVRESVEQQADSFKATRFNLETEWKNNYPRLRELDRNELFEKAKNEILDEVISLSQVTPKHWEEILQQSLWERVSTHVIENIYLPAAQTMNSGTFNTTVDIKLKQWTDKQLPNKAVEVAWETLQEEFSRFMTEPKGKEHDDIFDKLKEAVKEESIKRHKWNDFAEDSLRVIQHNALEDRSISDKQQWDAAIYFMEEALQARLKDTENAIENMVGPDWKKRWLYWKNRTQEQCVHNETKNELEKMLKCNEEHPAYLASDEITTVRKNLESRGVEVDPSLIKDTWHQVYRRHFLKTALNHCNLCRRGFYYYQRHFVDSELECNDVVLFWRIQRMLAITANTLRQQLTNTEVRRLEKNVKEVLEDFAEDGEKKIKLLTGKRVQLAEDLKKVREIQEKLDAFIEALHQEK", "values": [
      {"measurement": "stoichiometry N", "value": 2}
    ]},
    {"protein": "s-OPA1 K328R (domain or fragment, human, UniProt O60313-1 195-960, looked up, endogenous lysine acetylation, sites listed in Figure 2c, Optic Atrophy 1 (OPA1), human, short form (s-OPA1), residues 195-960; domain model of isoform 1; Made as a deacetylation mimetic; source: E. coli BL21 (DE3), purified (glutathione resin, 3C protease cleavage, size exclusion chromatography)) ATDRGSESDKHFRKVSDKEKIDQLQEELLHTQLKYQRILERLEKENKELRKLVLQKDDKGIHHRKLKKSLIDMYSEVLDVLSDYDASYNTQDHLPRVVVVGDQSAGKTSVLEMIAQARIFPRGSGEMMTRSPVRVTLSEGPHHVALFKDSSREFDLTKEEDLAALRHEIELRMRKNVKEGCTVSPETISLNVKGPGLQRMVLVDLPGVINTVTSGMAPDTKETIFSISKAYMQNPNAIILCIQDGSVDAERSIVTDLVSQMDPHGRRTIFVLTKVDLAEKNVASPSRIQQIIEGKLFPMKALGYFAVVTGKGNSSESIEAIREYEEEFFQNSKLLKTSMLKAHQVTTRNLSLAVSDCFWKMVRESVEQQADSFKATRFNLETEWKNNYPRLRELDRNELFEKAKNEILDEVISLSQVTPKHWEEILQQSLWERVSTHVIENIYLPAAQTMNSGTFNTTVDIKLKQWTDKQLPNKAVEVAWETLQEEFSRFMTEPKGKEHDDIFDKLKEAVKEESIKRHKWNDFAEDSLRVIQHNALEDRSISDKQQWDAAIYFMEEALQARLKDTENAIENMVGPDWKKRWLYWKNRTQEQCVHNETKNELEKMLKCNEEHPAYLASDEITTVRKNLESRGVEVDPSLIKDTWHQVYRRHFLKTALNHCNLCRRGFYYYQRHFVDSELECNDVVLFWRIQRMLAITANTLRQQLTNTEVRRLEKNVKEVLEDFAEDGEKKIKLLTGKRVQLAEDLKKVREIQEKLDAFIEALHQEK", "values": [
      {"measurement": "stoichiometry N", "value": 2}
    ]},
    {"protein": "s-OPA1 K342R (domain or fragment, human, UniProt O60313-1 195-960, looked up, 18 acetylated lysine sites (endogenous; listed in Figure 2c), Optic Atrophy 1 (OPA1), human, short form (s-OPA1), residues 195-960; domain model of isoform 1; Gene bought from Genscript in the pGS-21a vector; source: E. coli BL21 (DE3), purified (glutathione resin, 3C protease cleavage, size exclusion chromatography)) ATDRGSESDKHFRKVSDKEKIDQLQEELLHTQLKYQRILERLEKENKELRKLVLQKDDKGIHHRKLKKSLIDMYSEVLDVLSDYDASYNTQDHLPRVVVVGDQSAGKTSVLEMIAQARIFPRGSGEMMTRSPVKVTLSEGPHHVALFRDSSREFDLTKEEDLAALRHEIELRMRKNVKEGCTVSPETISLNVKGPGLQRMVLVDLPGVINTVTSGMAPDTKETIFSISKAYMQNPNAIILCIQDGSVDAERSIVTDLVSQMDPHGRRTIFVLTKVDLAEKNVASPSRIQQIIEGKLFPMKALGYFAVVTGKGNSSESIEAIREYEEEFFQNSKLLKTSMLKAHQVTTRNLSLAVSDCFWKMVRESVEQQADSFKATRFNLETEWKNNYPRLRELDRNELFEKAKNEILDEVISLSQVTPKHWEEILQQSLWERVSTHVIENIYLPAAQTMNSGTFNTTVDIKLKQWTDKQLPNKAVEVAWETLQEEFSRFMTEPKGKEHDDIFDKLKEAVKEESIKRHKWNDFAEDSLRVIQHNALEDRSISDKQQWDAAIYFMEEALQARLKDTENAIENMVGPDWKKRWLYWKNRTQEQCVHNETKNELEKMLKCNEEHPAYLASDEITTVRKNLESRGVEVDPSLIKDTWHQVYRRHFLKTALNHCNLCRRGFYYYQRHFVDSELECNDVVLFWRIQRMLAITANTLRQQLTNTEVRRLEKNVKEVLEDFAEDGEKKIKLLTGKRVQLAEDLKKVREIQEKLDAFIEALHQEK", "values": [
      {"measurement": "stoichiometry N", "value": 2}
    ]},
    {"protein": "s-OPA1 K772Q (domain or fragment, human, UniProt O60313-1 195-960, looked up, acetyl-lysine at K713 only (endogenous, by mass spectrometry), Optic Atrophy 1 (OPA1), human, short form (s-OPA1), residues 195-960; domain model of isoform 1; Gene bought from Genscript in the pGS-21a vector; source: E. coli BL21 (DE3), purified (glutathione resin, 3C protease cleavage, size exclusion chromatography)) ATDRGSESDKHFRKVSDKEKIDQLQEELLHTQLKYQRILERLEKENKELRKLVLQKDDKGIHHRKLKKSLIDMYSEVLDVLSDYDASYNTQDHLPRVVVVGDQSAGKTSVLEMIAQARIFPRGSGEMMTRSPVKVTLSEGPHHVALFKDSSREFDLTKEEDLAALRHEIELRMRKNVKEGCTVSPETISLNVKGPGLQRMVLVDLPGVINTVTSGMAPDTKETIFSISKAYMQNPNAIILCIQDGSVDAERSIVTDLVSQMDPHGRRTIFVLTKVDLAEKNVASPSRIQQIIEGKLFPMKALGYFAVVTGKGNSSESIEAIREYEEEFFQNSKLLKTSMLKAHQVTTRNLSLAVSDCFWKMVRESVEQQADSFKATRFNLETEWKNNYPRLRELDRNELFEKAKNEILDEVISLSQVTPKHWEEILQQSLWERVSTHVIENIYLPAAQTMNSGTFNTTVDIKLKQWTDKQLPNKAVEVAWETLQEEFSRFMTEPKGKEHDDIFDKLKEAVKEESIKRHKWNDFAEDSLRVIQHNALEDRSISDKQQWDAAIYFMEEALQARLKDTENAIENMVGPDWQKRWLYWKNRTQEQCVHNETKNELEKMLKCNEEHPAYLASDEITTVRKNLESRGVEVDPSLIKDTWHQVYRRHFLKTALNHCNLCRRGFYYYQRHFVDSELECNDVVLFWRIQRMLAITANTLRQQLTNTEVRRLEKNVKEVLEDFAEDGEKKIKLLTGKRVQLAEDLKKVREIQEKLDAFIEALHQEK", "values": [
      {"measurement": "stoichiometry N", "value": 2}
    ]}
  ]
}
